Laboratory results reported in patent publication US20220242962A1 (APTEVO RESEARCH AND DEVELOPMENT, published 2022).
Substitutions are numbered along the chain they refer to. Names and notes keep the numbering of the source. Values belong to the binder of their own block, whether it stands above or below them.

What was measured:
[1] = target: T1, C1Q (UniProt P02745 23-245; P02746 28-253; P02747 29-245); assay: SPR, Fc captured, C1Q as analyte
T1 construct: also called complement C1Q
Experimental: Fc mutations to be potentially integrated into an ADAPTIR™ bispecific construct were analyzed for binding to the common Fc receptors (human and cyno) and C1Q, which is a component of the complement activation system. SPR experiments were conducted at 25° C. in HBS-EP+ buffer on a Biacore T200 system.
For these experiments, all four flow cells of a CM5 sensor chip were immobilized with goat F(ab′)2 anti-human Fc (Jackson ImmunoResearch) to a response level of ˜4000 RU. Fc variants and wild type Fc were diluted to 100 nM in HBS-EP+ and captured on the surface of the chip for 120 seconds at a flow rate of 10 μL/min. Fcγ receptors (human and cyno, all purchased from R&D Systems) and complement (C1Q, purchased from Quidel Corporation and Complement Technology, Inc) were diluted in HBS-EP+ and then flowed as analytes at 30 μL/min for 120 seconds followed by a 120 seconds dissociation. Regeneration was achieved by flowing 10 mM glycine pH 1.7 at 30 μL/min for 30 seconds followed by a 60 seconds stabilization. Flow cell 1 was always left as a blank (no captured protein) for purposes of background signal subtraction. Blank-subtracted sensorgrams for each captured Fc variant were inspected for the presence of binding to any of the Fcγ receptor proteins or complement. There are polymorphisms in the Human Fc receptors IIA and RIIIA, so both sequences were tested for binding.

[2] = target: T2, Fc gamma receptor RIIA R131 on CHO-K1SV cells (human, UniProt P12318 34-317); assay: flow cytometry, CHO-K1SV transfectants
T2 construct: whole, on cells
T2 sequence (looked up): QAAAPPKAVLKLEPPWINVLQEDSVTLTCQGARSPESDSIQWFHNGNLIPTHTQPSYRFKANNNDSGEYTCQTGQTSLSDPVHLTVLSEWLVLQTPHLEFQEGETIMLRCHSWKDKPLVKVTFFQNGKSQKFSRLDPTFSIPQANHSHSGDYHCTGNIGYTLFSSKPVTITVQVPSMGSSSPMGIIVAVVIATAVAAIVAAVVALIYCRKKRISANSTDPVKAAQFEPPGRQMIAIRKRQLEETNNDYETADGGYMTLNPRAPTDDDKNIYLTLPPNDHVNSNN
Experimental: (§1) CHO-K1SV cells stably transfected with a series of FcγR receptors were incubated with each of the […] listed in Table 23. A typical experiment labeled approximately 100,000 cells per well, in 96-well plates, with a range of binding molecule concentrations of 1 to 1000 nM, in 100 μl of PBS buffer with 0.2% BSA and 2 mM EDTA, for 30 minutes on ice, followed by washes and incubation with PE-labeled minimum cross species reactive secondary antibody, goat anti-human IgG Fcγ, F(ab′)2 ([…]) for 30 minutes to 1 hour on ice. Signal from bound molecules was detected using a LSR-II™ flow cytometer (BD Biosciences) and analyzed by FlowJo flow cytometry analysis software. Mean fluorescence intensity (MFI) of bound molecules on cells was determined after exclusion of doublets.

[3] = target: T3, Fc gamma receptor RIIA H131 on CHO-K1SV cells (human, UniProt P12318 34-317); assay: flow cytometry, CHO-K1SV transfectants
T3 construct: whole, on cells
T3 sequence (looked up): T2 sequence (looked up) with R134H
Experimental: as §1

[4] = target: T4, Fc gamma receptor RIIB/C on CHO-K1SV cells (human, UniProt P31994 43-310); assay: flow cytometry, CHO-K1SV transfectants
T4 construct: whole, on cells
T4 sequence (looked up): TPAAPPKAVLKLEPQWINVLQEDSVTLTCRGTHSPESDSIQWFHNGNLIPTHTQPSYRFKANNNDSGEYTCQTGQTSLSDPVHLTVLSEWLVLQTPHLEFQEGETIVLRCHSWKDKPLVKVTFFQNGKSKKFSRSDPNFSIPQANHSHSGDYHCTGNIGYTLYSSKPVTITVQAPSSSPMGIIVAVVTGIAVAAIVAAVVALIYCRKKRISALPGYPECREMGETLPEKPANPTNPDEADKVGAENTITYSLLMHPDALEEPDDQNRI
Experimental: as §1

[5] = target: T5, Fc gamma receptor RIIIA F158 on CHO-K1SV cells (human, UniProt P08637 17-254); assay: flow cytometry, CHO-K1SV transfectants
T5 construct: whole, on cells
Experimental: as §1

[6] = target: T6, Fc gamma receptor RIIIB on CHO-K1SV cells (human, UniProt O75015 17-200); assay: flow cytometry, CHO-K1SV transfectants
T6 construct: whole, on cells
Experimental: as §1

[7] = target: T7, Full-length Cyno OX40 (cynomolgus monkey, UniProt P43489 29-277 (human entry)); assay: flow cytometry on CHOK1SV cells transfected with cynomolgus OX40, goat anti-human Fc secondary antibody, MFI (Mean)
T7 construct: on CHO-K1SV cells; also called OXF004; cynomolgus OX40
T7 chain: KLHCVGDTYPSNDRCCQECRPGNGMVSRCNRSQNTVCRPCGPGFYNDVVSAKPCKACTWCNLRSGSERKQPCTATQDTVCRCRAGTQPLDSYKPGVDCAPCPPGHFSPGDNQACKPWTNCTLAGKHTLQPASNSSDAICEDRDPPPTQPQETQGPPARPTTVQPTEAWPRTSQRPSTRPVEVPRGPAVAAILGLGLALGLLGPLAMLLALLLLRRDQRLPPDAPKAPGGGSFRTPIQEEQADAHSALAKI
Experimental: Serial dilutions of ADAPTIR™ constructs were incubated with cells transfected with human or cynomolgus ECD and subsequently labelled with a fluorescently-conjugated goat-α-human Fc secondary antibody. […] (See Example 16.)

T5 sequence (P08637 17-254): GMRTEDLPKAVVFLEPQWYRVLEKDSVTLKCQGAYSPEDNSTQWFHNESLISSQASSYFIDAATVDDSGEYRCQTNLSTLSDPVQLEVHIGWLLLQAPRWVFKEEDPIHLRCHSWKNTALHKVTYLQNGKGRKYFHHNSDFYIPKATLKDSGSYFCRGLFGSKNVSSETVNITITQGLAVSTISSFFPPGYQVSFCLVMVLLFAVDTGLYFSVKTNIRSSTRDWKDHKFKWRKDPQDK
T1 sequence (P02745 23-245 limits assumed, chain 1 of 3): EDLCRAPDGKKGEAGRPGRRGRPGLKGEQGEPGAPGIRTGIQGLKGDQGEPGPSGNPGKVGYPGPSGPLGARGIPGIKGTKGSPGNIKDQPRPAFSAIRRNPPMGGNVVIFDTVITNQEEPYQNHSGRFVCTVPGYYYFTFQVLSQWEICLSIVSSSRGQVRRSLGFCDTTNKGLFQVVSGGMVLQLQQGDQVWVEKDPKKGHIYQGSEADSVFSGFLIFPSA
T1 sequence (P02746 28-253 limits assumed, chain 2 of 3): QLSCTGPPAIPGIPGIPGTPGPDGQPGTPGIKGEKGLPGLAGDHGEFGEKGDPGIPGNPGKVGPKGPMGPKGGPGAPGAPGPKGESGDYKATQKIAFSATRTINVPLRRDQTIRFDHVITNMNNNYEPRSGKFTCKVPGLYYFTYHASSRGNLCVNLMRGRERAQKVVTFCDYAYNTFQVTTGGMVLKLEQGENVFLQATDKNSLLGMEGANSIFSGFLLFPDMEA
T1 sequence (P02747 29-245 limits assumed, chain 3 of 3): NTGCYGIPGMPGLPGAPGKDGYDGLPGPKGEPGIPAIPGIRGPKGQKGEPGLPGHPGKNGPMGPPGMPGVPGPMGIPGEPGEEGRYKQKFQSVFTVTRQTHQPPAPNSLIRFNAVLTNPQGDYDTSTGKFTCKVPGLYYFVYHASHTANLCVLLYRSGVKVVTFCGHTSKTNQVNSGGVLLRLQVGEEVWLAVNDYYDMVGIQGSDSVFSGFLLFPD
T6 sequence (O75015 17-200): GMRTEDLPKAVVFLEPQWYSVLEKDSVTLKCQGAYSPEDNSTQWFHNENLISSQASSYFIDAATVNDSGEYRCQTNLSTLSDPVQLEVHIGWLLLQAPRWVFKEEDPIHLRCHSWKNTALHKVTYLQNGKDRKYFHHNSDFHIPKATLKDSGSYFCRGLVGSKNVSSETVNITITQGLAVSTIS

- binding result [1]: no binding
- binding result [2]: no binding (tested: 1 to 1000 nM)
- binding result [3]: no binding (tested: 1 to 1000 nM)
- binding result [4]: no binding (tested: 1 to 1000 nM)
- binding result [5]: no binding (tested: 1 to 1000 nM)
- binding result [6]: no binding (tested: 1 to 1000 nM)
B1: TSC 1005 (other)
chain: EPKSSDKTHTCPPCPAPPVAAPSVFLFPPKPKDTLMISRTPEVTCVVVDVSHEDPEVKFNWYVDGVEVHNAKTKPREEQYNSTYRVVSVLTVLHQDWLNGKEYKCAVSNKALPAPIEKTISKAKGQPREPQVYTLPPSRDELTKNQVSLTCLVKGFYPSDIAVEWESNGQPENNYKTTPPVLDSDGSFFLYSKLTVDKSRWQQGNVFSCSVMHEALHNHYTQKSLSLSPG
notes: IgG1 Fc with E233P, L234V, L235A, deletion of G236, G237A, K322A (EU); also called PVAdel TSC01005

- EC50 (read off the curve) [7]: ~2 nM
B2: FXX01066 (bispecific antibody)
chain: EVQLVQSGAEVKKPGASVKVSCKASGYTFTSYWMNWVRQAPGQGLEWMGNIYPSGGSTNYAQKFQGRVTMTVDTSTSTVYMELSSLRSEDTAVYYCASFSDGYYAYAMDYWGQGTLVTVSSGGGGSGGGGSGGGGSGGGGSEIVMTQSPATLSLSPGERATLSCRASQSVSSYLNWYQQKPGQAPRLLIYYASRRHTGIPARFSGSGSGTDFTLTISSLQPEDFAVYYCQQGYNLPYTFGQGTKVEIKEPKSSDKTHTCPPCPAPPAAAPSVFLFPPKPKDTLMISRTPEVTCVVVDVSHEDPEVKFNWYVDGVEVHNAKTKPREEQYNSTYRVVSVLTVLHQDWLNGKEYKCAVSNKALPAPIEKTISKAKGQPREPQVYTLPPSRDELTKNQVSLTCLVKGFYPSDIAVEWESNGQPENNYKTTPPVLDSDGSFFLYSKLTVDKSRWQQGNVFSCSVMHEALHNHYTQKSLSLSPGGGGSPSSYVLTQPPSVSVAPGQTARITCGGNNIGSKSVNWFQQKPGQAPVLVVYDDSGRPSGIPERFSGSTSGNTATLTISRVEAGDEADYYCQVWDSSSDHVVFGGGTKLTVLGGGGSGGGGSGGGGSGGGGSQVQLVESGGGVVQPGRSLRLSCAASGFTLSYYGMHWVRQAPGKGLEWVAAISHDGSDKYYADSVKGRFTISRDNSKNTLYLQMNSLRAEDTAVYYCSNDQFDPWGQGTLVTVSSR
notes: ADAPTIR scFv-Fc-scFv, anti-4-1BB (VH-VL) N-terminal, anti-OX40 C-terminal, PAA (del) Fc; also called FX01066
